In article PMC4103757 one finds percent inhibition of the binding of scFv-L-Aff to immobilised hapten data, which are given here for 1 molecule.

The assay has as its target scFv-L-Aff, heterobivalent fusion protein of anti-hapten scFv (clone J42) and anti-HER2 affibody (Z_(HER2:477)). The assay can be described thus: SPR. A general note: Surface plasmon resonance follows binding to a sensor surface in real time, without labels.

Numbered stars: 1 amine (or outer) side, 2 acyl side, 3 side chain; on linkers, the order of the positions; unused ones are H or OH. Suc = O=C(CCC(=O)[*:2])[*:1]

B1: hapten peptide, histamine-succinyl-GSYK (peptide)
peptide: {histamine-Suc}-GSYK-NH2
B1 displayed a percent inhibition of the binding of scFv-L-Aff to immobilised hapten of 84%.
